Several values for one entry are separate records, joined by “and”; a condition that tells them apart may be missing. Equal entries are not always repeated.

For data set [1], the target named is CysK from Haemophilus influenzae, His6 tag removed with thrombin (Haemophilus influenzae) (UniProt P45040). In words: other fluorescence titration; PLP fluorescence emission at 500 nm; HiCysK (300 nM) or NlCysK (860 nM) titrated with CdiA-CT; read after 20 min; binding isotherm (Eq. 1).
The target in data set [2] is CysK from Neisseria lactamica ATCC 23970, His6-tagged (Neisseria lactamica ATCC 23970). Described as above.
Data set [3] addresses T1, CdiA-CT toxin domain from uropathogenic Escherichia coli 536, Q0T963.
T1 chain: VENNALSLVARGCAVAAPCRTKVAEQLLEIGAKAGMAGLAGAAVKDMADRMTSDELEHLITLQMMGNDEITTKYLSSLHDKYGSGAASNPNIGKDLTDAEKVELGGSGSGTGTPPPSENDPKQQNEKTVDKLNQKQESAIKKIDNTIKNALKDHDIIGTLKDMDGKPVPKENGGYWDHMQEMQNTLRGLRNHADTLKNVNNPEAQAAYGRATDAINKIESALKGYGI
In words: stopped-flow fluorescence; as a5, CysK concentration varied, 5 C. The conditions noted are these: other: stopped-flow fluorescence.

Data set [4] concerns the target T1, CdiA-CT toxin domain from uropathogenic …. In words: stopped-flow fluorescence; as a5, CysK concentration varied, 37 C. The note with it: other: stopped-flow fluorescence.
For data set [5] the target is unchanged. In words: stopped-flow fluorescence; PLP fluorescence, excitation 412 nm; buffer A; pseudo-first order, 200 nM EcCysK or 270 nM CdiA-CT fixed and the partner varied; 20 C; slope of kobs against concentration. The note with it: other: stopped-flow fluorescence.
Data set [6] deals with T2, E. coli CysK (EcCysK), O-acetyl-L-Ser sulfhydrylase (E. coli, UniProt P0ABK5 1-323, pyridoxal 5'-phosphate (PLP) cofactor).
T2 construct: CysK of E. coli; the E. coli cysK gene was amplified and ligated to pCH10068 (pSH21::trxA-TEV-cysK) for the purification of untagged EcCysK; not shown: TrxA, N-terminal, cleaved
T2 sequence (looked up): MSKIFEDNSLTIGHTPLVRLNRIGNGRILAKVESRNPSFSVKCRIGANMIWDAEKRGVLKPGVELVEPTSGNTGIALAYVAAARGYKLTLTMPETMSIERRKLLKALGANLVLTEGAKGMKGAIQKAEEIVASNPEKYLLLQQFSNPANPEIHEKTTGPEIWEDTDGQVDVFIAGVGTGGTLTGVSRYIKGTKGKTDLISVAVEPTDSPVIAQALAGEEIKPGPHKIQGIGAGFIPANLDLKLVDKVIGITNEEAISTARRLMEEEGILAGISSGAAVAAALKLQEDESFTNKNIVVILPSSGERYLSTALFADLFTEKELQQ
Kind of data set: other fluorescence titration; PLP fluorescence (excitation 412 nm, emission 500 nm); 1 uM EcCysK titrated with CdiA-CT to saturation (stoichiometric titration); 20 C. The note with it: both partners purified.

For data set [7], the target named is T2, E. coli CysK (EcCysK), O-acetyl-L-Ser …. Kind of data set: other fluorescence titration; PLP fluorescence emission at 500 nm; 80 nM EcCysK titrated with CdiA-CT; data read after 20 min; quadratic tight-binding equation (Eq. 2); 20 C. The conditions noted are these: both partners purified.
The target is the same in data set [8]. In words: inhibition of enzyme activity (sulfhydrylase); 6 nM EcCysK titrated with CdiA-CT; buffer A with 2 mM O-acetyl-L-Ser, 0.6 mM Na2S, 60 nM BSA; Morrison equation gives an apparent IC50, converted to Ki (Eq. 4). The note with it: both partners purified.
The target is the same in data set [9]. In words: inhibition of enzyme activity (sulfhydrylase); as a3 (6 nM EcCysK titrated with CdiA-CT) in the presence of 2.4 uM CdiI. The conditions noted are these: both partners purified.
Data set [10] deals with the molecule itself. Kind of data set: SEC; Ultrogel AcA44 column, 0.2 mL/min, buffer A. For orientation: In gel filtration, larger molecules generally elute earlier.

For the molecule “CdiA-CT toxin domain from uropathogenic Escherichia coli 536 (from UniProt Q0T963 3016-3242) (domain or fragment)”, the equilibrium dissociation constant (Kd) in data set [1] came to 3300 nM; in data set [2], 6400 nM.

B1: E. coli CysK (EcCysK), O-acetyl-L-Ser sulfhydrylase (protein)
chain: T2 sequence (looked up)
Consider B1, for which the “second-order rate constant k3/Kd (slope of kobs against CysK concentration, 5 °C)” value in data set [3] is 0.005 ± 0.0003 µM^−1·s^−1 (5 °C). The “second-order rate constant k3/Kd (slope of kobs against CysK concentration, 37 °C)” value in data set [4] was 0.099 ± 0.019 µM^−1·s^−1 (37 °C). The “second-order rate constant k3/Kd (slope of kobs against protein concentration)” value in data set [5] was 19000 ± 7000 M⁻¹ s⁻¹ and 17000 ± 7000 M⁻¹ s⁻¹.

B2: CdiA-CT toxin domain from uropathogenic Escherichia coli 536 (domain or fragment)
chain: T1 chain
notes: C-terminal toxin domain (CdiA-CT) of CdiA, uropathogenic E. coli 536
Take B2: the “stoichiometry N” value in data set [6] is 1.1 CdiA-CT:EcCysK. Moreover, the Kd in data set [7] worked out at 10 ± 11 nM. In addition, in data set [8], the IC50 is 15.4 ± 0.6 nM and the Ki is 11 ± 0.4 nM.

B3: CdiA-CT in the presence of excess CdiI immunity protein (CdiA-CT:CdiI) (complex)
chain 1: T1 chain
chain 2: MITLRKLIGNINMTKEPEQQSPLELWFERIIDVPLEKLTVEDLCRAIRQNLCIDQLMPRVLEVLTKEPLAGEYYDGELIAALSTIKGEDLKDQKSTFTQIRQLINQLEPSDINDDLRKDILKINQIIV
In the case of B3, the Ki in data set [9] amounted to 6.4 ± 0.5 nM.

B4: E. coli CysE (EcCysE), serine O-acetyltransferase (enzyme, UniProt P0A9D4 1-273, looked up)
chain: MSCEELEIVWNNIKAEARTLADCEPMLASFYHATLLKHENLGSALSYMLANKLSSPIMPAIAIREVVEEAYAADPEMIASAACDIQAVRTRDPAVDKYSTPLLYLKGFHALQAYRIGHWLWNQGRRALAIFLQNQVSVTFQVDIHPAAKIGRGIMLDHATGIVVGETAVIENDVSILQSVTLGGTGKSGGDRHPKIREGVMIGAGAKILGNIEVGRGAKIGAGSVVLQPVPPHTTAAGVPARIVGKPDSDKPSMDMDQHFNGINHTFEYGDGI
notes: CysE of E. coli; cysE amplified with primers CH3642/CDI235 (the fragment that also gives 'native EcCysE'); not shown: His6-thioredoxin (His6-TrxA), N-terminal, cleaved
As for B4, the “stoichiometry N” value in data set [10] is 6.

Broadly, the Kd is the equilibrium constant for the complex coming apart. Lower therefore signals higher affinity. Broadly, the stoichiometry N is the number of molecules, sites or subunits per partner or assembly. The term IC50 denotes the concentration that inhibits the measured activity by half.

The values above are taken from paper PMC5562914, “Activation of an anti-bacterial toxin by the biosynthetic enzyme CysK: mechanism of binding, interaction specificity and competition with cysteine synthase” (Scientific Reports, 2017).
